{
  "source": "paper PMC9863593",
  "about": "“Crystal Structure of Allantoinase from Escherichia coli BL21: A Molecular Insight into a Role of the Active Site Loops in Catalysis” (Molecules, 2023)",
  "proteins": {"B1": {"name": "Allantoinase from Escherichia coli BL21 (enzyme)", "chain": "MSFDLIIKNGTVILENEARVVDIAVKGGKIAAIGQDLGDAKEVMDASGLVVSPGMVDAHTHISEPGRSHWEGYETGTRAAAKGGITTMIEMPLNQLPATVDRASIELKFDAAKGKLTIDAAQLGGLVSYNIDRLHELDEVGVVGFKCFVATCGDRGIDNDFRDVNDWQFFKGAQKLGELGQPVLVHCENALICDELGEEAKREGRVTAHDYVASRPVFTEVEAIRRVLYLAKVAGCRLHVCHVSSPEGVEEVTRARQEGQDVTCESCPHYFVLDTDQFEEIGTLAKCSPPIRDLENQKGMWEKLFNGEIDCLVSDHSPCPPEMKAGNIMEAWGGIAGLQNCMDVMFDEAVQKRGMSLPMFGKLMATNAADIFGLQQKGRIAPGKDADFVFIQPNSSYVLTNDDLEYRHKVSPYVGRTIGARITKTILRGDVIYDIEQGFPVAPKGQFILKHQQ", "modifications": "carbamylated lysine at 146 (Kcx146)", "notes": "Allantoinase (allB, ECD_00462) of E. coli BL21; predicted monomer of 453 amino acid residues, 49.6 kDa; Zinc-amended enzyme with 2 Zn ions per monomer; construct limits and tag are not described here; Residues 452-453 are said to be seen in the structure; also called EcALLase-BL21; E. coli BL21 ALLase"}},
  "target": "the molecule itself",
  "assay": "crystal structure; hanging drop vapor diffusion, room temperature, 20% PEG8000, 100 mM CHES pH 9.5; protein at 30 mg/mL; space group C121; four monomers per asymmetric unit; 2.07 Å",
  "data": [
    {"protein": "B1", "values": [
      {"measurement": "stoichiometry N", "result": 4}
    ]}
  ]
}
